The numbers were not newly measured in paper PMC4019842, which cites them from elsewhere.

The series deals with holo-transferrin (Homo sapiens) (UniProt P02787).
UniProt P02787, sequence (P02787 20-698): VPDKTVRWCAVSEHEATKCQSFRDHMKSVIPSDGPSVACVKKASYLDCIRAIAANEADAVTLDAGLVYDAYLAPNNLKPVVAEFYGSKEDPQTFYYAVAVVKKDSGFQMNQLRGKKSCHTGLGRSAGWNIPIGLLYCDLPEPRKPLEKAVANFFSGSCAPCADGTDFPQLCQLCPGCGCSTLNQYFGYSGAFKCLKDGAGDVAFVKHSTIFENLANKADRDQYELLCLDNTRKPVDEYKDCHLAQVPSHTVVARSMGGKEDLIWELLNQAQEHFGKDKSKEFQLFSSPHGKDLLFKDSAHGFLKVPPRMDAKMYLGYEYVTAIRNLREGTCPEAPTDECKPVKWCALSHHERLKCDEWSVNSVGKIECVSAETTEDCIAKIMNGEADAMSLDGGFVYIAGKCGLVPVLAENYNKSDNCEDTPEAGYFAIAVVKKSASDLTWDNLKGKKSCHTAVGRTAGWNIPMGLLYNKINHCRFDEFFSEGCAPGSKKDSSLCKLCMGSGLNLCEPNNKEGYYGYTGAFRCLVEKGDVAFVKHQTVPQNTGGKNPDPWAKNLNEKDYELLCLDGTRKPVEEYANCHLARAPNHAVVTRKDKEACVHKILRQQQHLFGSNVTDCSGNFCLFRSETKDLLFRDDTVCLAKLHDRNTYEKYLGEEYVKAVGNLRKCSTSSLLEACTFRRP

In general, Kd refers to a measure of binding affinity in units of concentration. For the substance TFR2 (from UniProt Q9UP52), the Kd was 0.03 µM.
